Data on 1 substance can be found in patent publication US20250302816A1, “DISRUPTION OF EPITHELIAL BARRIERS FOR MOLECULAR DELIVERY ENHANCEMENT OR EXTRACTION OF EXTRACELLULAR FLUIDS” (The University of Nottingham, priority 2022, published 2025).

In one series the test system is ex-vivo rat eyes. How it is done:
In order to investigate the efficacy of 3OC12-HSL as drug delivery enhancer in intact tissue, bevacizumab (250 μg/mL: […]) and aflibercept (40 mg/mL: 348 μM) were applied with and without 3OC12-HSL to ex-vivo rat eyes, and the distribution of drugs was visualised within sagittal ocular cryosections by confocal microscopy. A further set of experiments tested efficacy of 3OC12-HSL via ex vivo porcine skin.
Six hooded rats with pigmented eyes, weighing 280-300 g and aged 7-8 weeks were provided by Bio-Support Unit at the Queen's Medical Centre, Nottingham. Experiments were designed to be performed ex-vivo, immediately post-sacrifice, during experiments supporting other studies. Tested therapies (bevacizumab (250 μg/mL), aflibercept (250 μg/mL) with/without 3OC12-HSL (200 μM) were immediately applied post-sacrifice in (50 μL) to the corneal surface of each animal for a period of 1 hour, before being washed off using ice-cold PBS. The eyeballs were enucleated, immersed in OCT, and flash-frozen in isopentane cooled by liquid N2 before being stored at −80° C. for further processing.
OCT-embedded eyes were cut into 15 μm tissue sections using a cryostat (Leica 3050) and mounted on gelatin-coated slides, at cutting temperatures between −15 and −23° C. […]

In series [1] the test system is laser-induced mouse model of CNV. Kind of series: Laser-induced mouse model of choroidal neovascularisation (CNV). The format is in vivo, C57BL/6J mice. The conditions noted are these: day 7, topical drops to both eyes twice daily, bevacizumab 250 μg/mL. How it is done:
FIG. 7: Anti-angiogenic efficacy of Bevacizumab with and without 3OC12-HSL (agent) in a laser-induced mouse model of CNV.in a mouse model of choroidal neovascularisation. C57BL/6J mice (n=6 per group) were subjected to laser photocoagulation (Merilas, 532α, 450 mW, 130 ms, 75 μm, 4 lesions per eye) on day 0. Post lasering animals received twice daily topical drops to both eyes10 μL of bevacizumab (250 μg/mL) with/without 3OC12-HSL and control vehicle only) for a total of 14 days. FFA was performed on days 7 and 14 and lesion area measured using Fiji software, n=lesions (mice). All data and graphs were calculated with Fiji and GraphPad Prism v8 and statistical analysis using an t-test, with Welch's correction, * p=<0.05, ** p=<0.01. Data bars represent mean±SEM. Scale bar 200 μm.
Six to eight week-old female C57BL/6J mice (16-20 g, Charles River, UK) were anaesthetized with an intraperitoneal (i.p.) injection of 50 mg/kg ketamine hydrochloride (Ketaset®, 100 mg/mL) and 0.5 mg/kg medetomidine hydrochloride (Sedastart®, 1 mg/mL). The pupils were dilated with a drop of 5% phenylephrine hydrochloride and 0.8% tropicamide to each eye. […] Fundus angiograms were imported into Fiji software and lesions were traced by a masked observer and lesion area was quantified over treatment time and compared between treatment groups. […]

For “Bevacizumab: recombinant humanized monoclonal IgG1 antibody which binds to human VEGF (MW 149 kDa)”, the “fluorescence in eye sections (CLSM)” value in the series on ex-vivo rat eyes is listed as “No fluorescence was detected”. In addition, the penetration through skin in the series on ex vivo porcine skin amounted to 5 mm. In series [1], the average lesion area is 2.86±0.47×10^4.
